Experimental data reported in PMC5774586.

T1: ESR1-Cerulean, P03372
T1 chain: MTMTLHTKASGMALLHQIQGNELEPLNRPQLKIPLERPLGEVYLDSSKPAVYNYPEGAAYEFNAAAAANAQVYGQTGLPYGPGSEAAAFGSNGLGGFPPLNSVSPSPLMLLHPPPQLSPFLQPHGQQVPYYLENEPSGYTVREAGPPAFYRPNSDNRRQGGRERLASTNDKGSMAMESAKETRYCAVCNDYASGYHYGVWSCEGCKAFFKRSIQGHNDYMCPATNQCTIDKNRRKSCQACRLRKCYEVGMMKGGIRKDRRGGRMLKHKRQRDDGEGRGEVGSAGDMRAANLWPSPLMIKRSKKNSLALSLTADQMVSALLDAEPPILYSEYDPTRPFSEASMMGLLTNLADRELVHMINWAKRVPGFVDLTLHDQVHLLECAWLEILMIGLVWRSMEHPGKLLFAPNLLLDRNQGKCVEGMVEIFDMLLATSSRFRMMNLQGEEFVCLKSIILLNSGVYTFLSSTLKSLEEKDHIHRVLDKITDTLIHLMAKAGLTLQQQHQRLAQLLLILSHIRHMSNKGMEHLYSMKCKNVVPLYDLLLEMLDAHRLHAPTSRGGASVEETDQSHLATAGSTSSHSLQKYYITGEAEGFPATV

B1: FOXA1-Venus, P55317 1-472 (natural protein)
chain: MLGTVKMEGHETSDWNSYYADTQEAYSSVPVSNMNSGLGSMNSMNTYMTMNTMTTSGNMTPASFNMSYANPGLGAGLSPGAVAGMPGGSAGAMNSMTAAGVTAMGTALSPSGMGAMGAQQAASMNGLGPYAAAMNPCMSPMAYAPSNLGRSRAGGGGDAKTFKRSYPHAKPPYSYISLITMAIQQAPSKMLTLSEIYQWIMDLFPYYRQNQQRWQNSIRHSLSFNDCFVKVARSPDKPGKGSYWTLHPDSGNMFENGCYLRRQKRFKCEKQPGAGGGGGSGSGGSGAKGGPESRKDPSGASNPSADSPLHRGVHGKTGQLEGAPAPGPAASPQTLDHSGATATGGASELKTPASSTAPPISSGPGALASVPASHPAHGLAPHESQLHLKGDPHYSFNHPFSINNLMSSSEQQHKLDFKAYEQALQYSPYGSTLPASLPLGSASVTTRSPIEPSALEPAYYQGVYSRPVLNTS

Columns and labels:
[1] = target: FOXA1-Venus (UniProt P55317); assay: FRET or BRET
[2] = target: T1, ESR1-Cerulean, P03372; assay: FRET or BRET; settings: remark: other sources report otherwise

Row | Molecule | FRET efficiency [1] | FRET efficiency [2]
1 | NFIB-Cerulean (from UniProt O00712 1-420) (natural protein) | 0.055 | –
2 | B1 | – | 0.139
